Source: the supplement of paper PMC7125110
± gives the standard error. Variants at the floor of the assay were thinned out.

B1: glmS ribozyme (parent)
chain: AUAAAAGCGCCAGAACUACAGAAAUGUAGUUGACGAGGAGGAGGUUUAUCGAAUUUUCGGCGGAUGCCUCCAAA

Columns and labels:
Details in all cases: with glucosamine-6-phosphate
glucosamine-6-phosphate [1] = variants of: B1; assay: self-cleavage kobs at 40 uM GlcN6P; higher = faster cleavage; RNA array
Outline: (§1)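 E. coli RNA polymerase transcribed barcoded ribozyme variants in situ on sequenced MiSeq chips, which were tracked via a hybridised Cy3 probe at 37 °C. Tiles were imaged over ~14 h after glucosamine-6-phosphate (40 μM to 10 mM) in HEPES/KCl/Mg(OAc)2 buffer was flowed in. Normalised per-tile medians were fit to one- or two-exponential decays for kobs, and kcat and KM came from weighted Michaelis–Menten fits.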

glucosamine-6-phosphate [2] = variants of: B1; assay: self-cleavage kobs at 160 uM GlcN6P; higher = faster cleavage; RNA array
Outline: as §1

glucosamine-6-phosphate [3] = variants of: B1; assay: self-cleavage kobs at 640 uM GlcN6P; higher = faster cleavage; RNA array
Outline: as §1

glucosamine-6-phosphate [4] = variants of: B1; assay: self-cleavage kobs at 2500 uM GlcN6P; higher = faster cleavage; RNA array
Outline: as §1

glucosamine-6-phosphate [5] = variants of: B1; assay: self-cleavage kobs at 10000 uM GlcN6P; higher = faster cleavage; RNA array
Outline: as §1

| Variant | self-cleavage kobs at 40 uM GlcN6P (glucosamine-6-phosphate [1]) | self-cleavage kobs at 160 uM GlcN6P (glucosamine-6-phosphate [2]) | self-cleavage kobs at 640 uM GlcN6P (glucosamine-6-phosphate [3]) | self-cleavage kobs at 2500 uM GlcN6P (glucosamine-6-phosphate [4]) | self-cleavage kobs at 10000 uM GlcN6P (glucosamine-6-phosphate [5]) |
| --- | --- | --- | --- | --- | --- |
| G44C A48U | < 1e-05 s⁻¹ | < 1e-05 s⁻¹ | < 1e-05 s⁻¹ | < 1e-05 s⁻¹ | < 1e-05 s⁻¹ |
| G43C C58A | < 1e-05 s⁻¹ | < 1e-05 s⁻¹ | < 1e-05 s⁻¹ | < 1e-05 s⁻¹ | < 1e-05 s⁻¹ |
| G44U U57A U69A | < 1e-05 s⁻¹ | < 1e-05 s⁻¹ | < 1e-05 s⁻¹ |  | < 1e-05 s⁻¹ |
| U47G A52G U69C | 6.7e-05 ± 2.4e-05 s⁻¹ |  |  |  | 9.36e-05 ± 1.5e-05 s⁻¹ |
| U45G U46G C61A | < 1e-05 s⁻¹ |  |  |  | < 1e-05 s⁻¹ |
| U47C G66C | < 1e-05 s⁻¹ | < 1e-05 s⁻¹ | < 1e-05 s⁻¹ | < 1e-05 s⁻¹ |  |
| G44C C67A | 0.000178 ± 2.3e-05 s⁻¹ | 0.00032 ± 9e-05 s⁻¹ | 0.00196 ± 0.00037 s⁻¹ | 0.00486 ± 0.0014 s⁻¹ | 0.00668 ± 0.0019 s⁻¹ |
| G43A G44A G51A C58A | < 1e-05 s⁻¹ |  |  |  | < 1e-05 s⁻¹ |
| U47G C70U | 0.000323 ± 3.2e-05 s⁻¹ | 0.000641 ± 8.8e-05 s⁻¹ | 0.00192 ± 0.00055 s⁻¹ | 0.000583 ± 0.00011 s⁻¹ |  |
| U46G C58U | < 1e-05 s⁻¹ |  |  |  |  |
| U47A C50G C68A | 0.000209 ± 7.9e-05 s⁻¹ |  |  |  | 0.000323 ± 6.5e-05 s⁻¹ |
| U45A C67A | 0.000364 ± 5.5e-05 s⁻¹ |  |  | 0.00568 ± 0.0022 s⁻¹ | 0.00719 ± 0.0014 s⁻¹ |
| U47C C61G C71U | < 1e-05 s⁻¹ |  |  |  | < 1e-05 s⁻¹ |
| U49C U57C | < 1e-05 s⁻¹ | < 1e-05 s⁻¹ | < 1e-05 s⁻¹ |  | < 1e-05 s⁻¹ |
| A42U U46C | < 1e-05 s⁻¹ | < 1e-05 s⁻¹ | < 1e-05 s⁻¹ |  |  |
| G43U A64C | < 1e-05 s⁻¹ | < 1e-05 s⁻¹ | < 1e-05 s⁻¹ |  | < 1e-05 s⁻¹ |
| U45C G60U | < 1e-05 s⁻¹ | < 1e-05 s⁻¹ | < 1e-05 s⁻¹ |  | < 1e-05 s⁻¹ |
| G44C U54A U57A U65G U69G | < 1e-05 s⁻¹ |  |  |  | < 1e-05 s⁻¹ |
| G43A U57A | < 1e-05 s⁻¹ |  |  | < 1e-05 s⁻¹ | < 1e-05 s⁻¹ |
| G44U C70A | < 1e-05 s⁻¹ | < 1e-05 s⁻¹ | < 1e-05 s⁻¹ | < 1e-05 s⁻¹ | < 1e-05 s⁻¹ |
| U49A G62C | < 1e-05 s⁻¹ |  |  |  | < 1e-05 s⁻¹ |
| U49A G62U | < 1e-05 s⁻¹ |  |  |  | < 1e-05 s⁻¹ |
